Measured values: US5716804, “Mammalian interleukin-10 (IL-10) super-activating receptors; and variants” (Schering Corporation, dated 1998)
Values joined by “and” are separate entries in the source; they are usually repeats but may differ in a detail not shown here. Identical values can stand only once. Values belong to the molecule of their own block, whether it stands above or below them.

Key:
[1] = target: mIL-10R Δ282-414 (mouse); settings: scale: log greater proliferative response than wild-type mIL-10R
[2] = target: mIL-10R Δ282-458 (mouse); settings: scale: log greater proliferative response than wild-type mIL-10R
[3] = target: mIL-10R Δ282-389 (mouse); settings: scale: log greater proliferative response than wild-type mIL-10R
[4] = target: the mutant mIL-10R; test: binding of iodinated hIL-10 to Ba/F3 transfectants, Scatchard analysis
[5] = target: T1, ^125 I-hIL-10 (iodinated recombinant CHO-derived human IL-10) (human, UniProt P22301, iodinated (125I); labelled residue not stated); test: Scatchard analysis of 125I-hIL-10 saturation binding to Ba/F3 transfectants
Experimental: Approximately 5×10^6 cells for each cell line tested were pelleted by centrifugation at 200×g for 10 min, washed in PBS, and resuspended in 200 μl binding buffer (PBS, 10% fetal calf serum, 0.1% NaN_3) containing iodinated hIL-10 at a concentration of 100–500 pM. After incubation at 4° C. for two hours in a rotary mixer, the cells were centrifuged at 200×g for 10 min, resuspended in 100 μl binding buffer without labeled hIL-10, layered over 200 μl of a 1:1 mixture of dibutyl- and dioctyl-phthalate oils in elongated microcentrifuge tubes, centrifuged at 400×g for 5 min at 4° C., and quick frozen in liquid nitrogen. The cell pellets were then cut and counted in a Clinigamma 1272 counter (Pharmacia LKB). Non-specific binding was determined by performing the binding in the presence of 500 to 1000-fold molar excess unlabeled hIL-10. For saturation binding experiments, two-fold serial dilutions of approximately 600 pM solution of iodinated hIL-10 were used, with a parallel series done to determine non-specific binding. Scatchard analysis was performed on the data points obtained using the EBDA Program (Elsevier-Biosoft, Cambridge, U.K.). Antibody inhibition was done under the above binding conditions but with the addition of a 100-fold molar excess of each of the indicated monoclonal antibodies. Cytokine specificity was determined under similar conditions but with the addition of 500-fold molar excess of the cytokines indicated. Similar measurements can be made using the BIACORE apparatus (Pharmacia LKB) following manufacturer's recommendations.

[6] = target: T1, ^125 I-hIL-10 (iodinated recombinant …); test: binding of iodinated hIL-10 to Ba/F3 transfectants

Molecule: IL-10 (ligand)
- proliferative response to IL-10 of Ba/F3 transfectants [1]: 1.5 and 2
- proliferative response to IL-10 of Ba/F3 transfectants [2]: 1.5 and 2
- proliferative response to IL-10 of Ba/F3 transfectants [3]: 1.5 and 2

Molecule: ^125 I-hIL-10 (iodinated recombinant CHO-derived human IL-10) (from UniProt P22301) (ligand)
- Kd [4]: 0.4 to 0.6 nM

B2: mIL-10R Δ282-458 (receptor)
chain: LEFIAYGTELPSPSYVWFEARFFQHILHWKPIPNQSESTYYEVALKQYGNSTWNDIHICRKAQALSCDLTTFTLDLYHRSYGYRARVRAVDNSQYSNWTTTETRFTVDEVILTVDSVTLKAMDGIIYGTIHPPRPTITPAGDEYEQVFKDLRVYKISIRKFSELKNATKRVKQETFTLTVPIGVRKFCVKVLPRLESRINKAEWSEEQCLLITTEQYFTVTNLSILVISMLLFCGILVCLVLQWYIRHPGKLPTVLVFKKPHDFFPANPLCPETPDAIHIVGVHLQDDLAWPPPALAAGYLKQESQGMASAPPGTPSRQWNQLTEEWSLLGVVSCEDLSIESWRFAHKLDPLDCGAAPGGLLDSLGSNLVTLPLISSLQVEE
- binding result [6]: binds

B4: mIL-10R Δ282-389 (receptor)
chain: LEFIAYGTELPSPSYVWFEARFFQHILHWKPIPNQSESTYYEVALKQYGNSTWNDIHICRKAQALSCDLTTFTLDLYHRSYGYRARVRAVDNSQYSNWTTTETRFTVDEVILTVDSVTLKAMDGIIYGTIHPPRPTITPAGDEYEQVFKDLRVYKISIRKFSELKNATKRVKQETFTLTVPIGVRKFCVKVLPRLESRINKAEWSEEQCLLITTEQYFTVTNLSILVISMLLFCGILVCLVLQWYIRHPGKLPTVLVFKKPHDFFPANPLCPETPDAIHIVSPGQPKYTQDASALGHVCLLEPKAPEEKDQVMVTFQGYQKQTRWKAEAAGPAECLDEEIPLTDAFDPELGVHLQDDLAWPPPALAAGYLKQESQGMASAPPGTPSRQWNQLTEEWSLLGVVSCEDLSIESWRFAHKLDPLDCGAAPGGLLDSLGSNLVTLPLISSLQVEE
- binding result [6]: binds

Further lines, results first:

- Kd [5]: 0.28 nM
B1: wild-type mouse IL-10 receptor (mIL-10R) (receptor)
chain: LEFIAYGTELPSPSYVWFEARFFQHILHWKPIPNQSESTYYEVALKQYGNSTWNDIHICRKAQALSCDLTTFTLDLYHRSYGYRARVRAVDNSQYSNWTTTETRFTVDEVILTVDSVTLKAMDGIIYGTIHPPRPTITPAGDEYEQVFKDLRVYKISIRKFSELKNATKRVKQETFTLTVPIGVRKFCVKVLPRLESRINKAEWSEEQCLLITTEQYFTVTNLSILVISMLLFCGILVCLVLQWYIRHPGKLPTVLVFKKPHDFFPANPLCPETPDAIHIVDLEVFPKVSLELRDSVLHGSTDSGFGSGKPSLQTEESQFLLPGSHPQIQGTLGKEESPGLQATCGDNTDSGICLQEPGLHSSMGPAWKQQLGYTHQDQDDSDVNLVQNSPGQPKYTQDASALGHVCLLEPKAPEEKDQVMVTFQGYQKQTRWKAEAAGPAECLDEEIPLTDAFDPELGVHLQDDLAWPPPALAAGYLKQESQGMASAPPGTPSRQWNQLTEEWSLLGVVSCEDLSIESWRFAHKLDPLDCGAAPGGLLDSLGSNLVTLPLISSLQVEE

- Kd [5]: 0.54 nM
B3: mIL-10R Δ483-559 (receptor)
chain: LEFIAYGTELPSPSYVWFEARFFQHILHWKPIPNQSESTYYEVALKQYGNSTWNDIHICRKAQALSCDLTTFTLDLYHRSYGYRARVRAVDNSQYSNWTTTETRFTVDEVILTVDSVTLKAMDGIIYGTIHPPRPTITPAGDEYEQVFKDLRVYKISIRKFSELKNATKRVKQETFTLTVPIGVRKFCVKVLPRLESRINKAEWSEEQCLLITTEQYFTVTNLSILVISMLLFCGILVCLVLQWYIRHPGKLPTVLVFKKPHDFFPANPLCPETPDAIHIVDLEVFPKVSLELRDSVLHGSTDSGFGSGKPSLQTEESQFLLPGSHPQIQGTLGKEESPGLQATCGDNTDSGICLQEPGLHSSMGPAWKQQLGYTHQDQDDSDVNLVQNSPGQPKYTQDASALGHVCLLEPKAPEEKDQVMVTFQGYQKQTRWKAEAAGPAECLDEEIPLTDAFDPELGVHLQDDLAWPPPALAAGYLKQES

- Kd [5]: 0.67 nM
B5: mIL-10R Δ282-414 (receptor)
chain: LEFIAYGTELPSPSYVWFEARFFQHILHWKPIPNQSESTYYEVALKQYGNSTWNDIHICRKAQALSCDLTTFTLDLYHRSYGYRARVRAVDNSQYSNWTTTETRFTVDEVILTVDSVTLKAMDGIIYGTIHPPRPTITPAGDEYEQVFKDLRVYKISIRKFSELKNATKRVKQETFTLTVPIGVRKFCVKVLPRLESRINKAEWSEEQCLLITTEQYFTVTNLSILVISMLLFCGILVCLVLQWYIRHPGKLPTVLVFKKPHDFFPANPLCPETPDAIHIVEEKDQVMVTFQGYQKQTRWKAEAAGPAECLDEEIPLTDAFDPELGVHLQDDLAWPPPALAAGYLKQESQGMASAPPGTPSRQWNQLTEEWSLLGVVSCEDLSIESWRFAHKLDPLDCGAAPGGLLDSLGSNLVTLPLISSLQVEE
